Experimental data from US20080230399A1, “Fructosylamine Oxidase” (priority 2003, published 2008).

Assay: Determination of enzymatic activity (POD/Phenol/4A.A. method)
Assay type: biochemical
Details: substrate 10 mM, PPb pH 7.0 50 mM, absorbance at 505 nm; recombinant FAO produced by Escherichia coli compared with enzyme produced by wild-type Pichia sp. N1-1
Protocol: Reactivity of the purified enzyme prepared in Example 5 to fructosyl valine, N′-fructosyl lysine, fructosyl glycine, fructosyl alanine, fructosyl leucine, fructosyl phenylalanine, glucose and sarcosine was examined. The measurement was conducted using a solution containing a substrate (10 mM), PPb (pH 7.0, 50 mM), phenol (1.5 mM), 4-aminoantipyrine (1.5 mM) and peroxidase (2 U/ml), and changes in the absorbance at 505 nm were measured according to the POD/Phenol/4A.A. method. […] N1-1 strain of wild type.

B1: recombinant FAO: Fructosylamine oxidase derived from Pichia sp. N1-1 (SEQ ID NO: 1), recombinantly produced in Escherichia coli DH5α/pTN1 and purified (protein, listed as Pichia sp.)
chain: MESIIIVGAGTFGLSTALQLARDGYKNIKCFDKFPVPSEIAAGNDSNKIFHYDYVAPLAKPNSKERLSLEALHLWKTDPVYKPYYHPVGFILAASSDAPLLHDKEYYEELQKNGLRNYRYISTPEEFREYLPILKGPLPNWRGYVLDGDNGWLHARDSLKSAYEECKRLGVEFVFGDDGEIVELLNENGKLTGIRARSGAIFSAQKYVLSSGANAVTLLNFQRQLEGKCFTLAHFKVTDEEAKAFKSLPVLFNAEKGFFFEADENNEIKICNEYPGFTHTNESGESIPLYRMEIPLESALEIRQYLKETMPQFADRPFTKTRICWCTDSPDMQLILCTHPEYTNLIVASGDSGNSFKIMPIIGKYVSKVVTKGDKGLDPEDKECWKWRPETWDKRGQVRWGGRYRVADLNEIEEWVSVENPTPHKLE
  activity and substrate specificity of the enzyme: higher activity
